Measured values from the supplement of paper PMC9170038.

Tested on: MS2 coat protein
Test: apparent KD of MS2 coat protein; higher = weaker reporter binding
Settings: Eterna round: R107
Method in brief: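 Apparent KD per design is the median of normalised cluster binding-curve fits. Designed RNA switches transcribed on-chip from Illumina sequencing clusters were titrated with SNAP-549-labelled MS2 coat protein in twofold steps from 0.7 or 1.5 nM to 3 µM, with 0.8–1.5 h down to 10–20 min per step. Buffer: 100 mM Tris-HCl pH 7.5, 80 mM KCl, 4 mM MgCl2, without or with constant ligand.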

[1] = input ligand: theophylline 20 uM
[2] = input ligand: theophylline 2 mM
[3] = input ligand: tryptophan 2.4 mM

Sequence	apparent KD of MS2 coat protein (input ligand: arginine 13.2 mM)	apparent KD of MS2 coat protein [1]	apparent KD of MS2 coat protein [2]	apparent KD of MS2 coat protein (input ligand: none)	apparent KD of MS2 coat protein [3]
UUGCCCAGUACGGCCGCCACUGUGUGCAGGGAGCCCAGGUCCACAUGAGGAUCACCCAUGUACAACAGGACCGGGUACUUGCAAU [Usdizaqu]	7.54 nM	12.7 nM	11.8 nM		
UUGGGUUUGCGAAGGAGCGGGAAAUAUAUAUAUAUAAUCCUAACAUGAGGAUCACCCAUGUCCCAGGUAGGUCGCGCGGGUUUGG [12.M]	42 nM	61.9 nM	54.3 nM	59.5 nM	51.2 nM
UUGGGUUUGUGAAGGAGCGGGAAAGUUAUAUAGUUAAUCCUAACAUGAGGAUCACCCAUGUCCCAGGUAGGUCGCGCGGGUUUGG [12.P]	32.7 nM	60.6 nM	55 nM	47.5 nM	47.3 nM
UUGGGUUUGUGAAGGAGCGGGAAAGUUUUAUAGUGAAUCCUAACAUGAGGAUCACCCAUGUCCCAGGUAGGUCGCGCGGGUUUGG [12.Q]	240 nM	115 nM	144 nM	134 nM	80.8 nM
UUGGUACGACAGCUCAUAUAAGCAUGUGAUACCAGACUGGAAACAGUCCCUUGGCAGCACUUUACAUGAGGAUCACCCAUGUCGG [EThA NP+V+V2 #3 +-Same Structure]	76.6 nM	201 nM			212 nM
UUGUUGUUUGGAAGGAGCGUGGAUGAGUGUGGACAUGAGGAUCACCCAUGUUGGAUGAUACCGCAGGUAGGUCGCCGGGUGGUGG [11.aD]	89.7 nM	162 nM	300 nM	164 nM	75.9 nM
UUUAGUCAAUCGGCCGCCACUGACAUGAGGAUCACCCAUGUAGGUAAGGAUCAACCUCGAAAGUACAGGACCGGGAUUCGCCUCU [theeternabot_exclusion_MS2_Trp_B_45]	51.7 nM	67.6 nM	65 nM		
UUUAUAUAGACGGCCGCCACUGGAAUUAAUACAUGAGGAUCACCCAUGUAUAGAGAAUAAUAAUACAGGACCGGGUCUUCAUGAU [SS Tryp B Tesla 1.1]	28.3 nM	34.2 nM	33.7 nM		
UUUGACGGCGAUCUGGGUUUACCAGAUCGGCGAGGACCGGUACGGCCGCCACUCGUGUUUCUUUGACAUGAGGAUCACCCAUGUA [whbob_SS_trypto A_f2]	38.4 nM	57.3 nM	60.5 nM		
UUUGAUAGGACAGAUACCAGCGUGUUAUAAAACAUGAGGAUCACCCAUGUAGUGAUCAAGCGCCCUUGGCAGCUGGUUUGUUAGG [7.J]	73.5 nM	220 nM			207 nM
UUUGAUAGGACAGAUACCAGCGUGUUGUAGAACAUGAGGAUCACCCAUGUAGUGAUCAAGCGCCCUUGGCAGCUGGUUUGUUAGG [7.L]	184 nM	350 nM			363 nM
UUUUAGCAUCGAAGGAGCGCUGGUGAAACUGACUAUGGAACAUGAGGAUCACCCAUGUGCUAGCAGGUAGGUCGCGAUGCUAUUU [SSAB NP+V+V2 #10]	16.9 nM	20.7 nM	18.1 nM	17.6 nM	14.9 nM
UUUUUUAUCAUGGCGUAUCGGAAAACCGAUACCAGUACAGAAAUGUACCCUUGGCAGCGGCGUUUUACAUGAGGAUCACCCAUGU [Ex Theophylline A 4]	15.1 nM	23.7 nM			14.9 nM
